Three substances from patent US20250326823A1 can be followed below.

Assay in all cases: cell-based or functional assay
Experiment [1] has as its target SARS-CoV-2 spike (S) protein, Omicron sublineage XBB.1.5 (SARS-CoV-2).
Experiment [2] concerns the target SARS-CoV-2 Omicron sublineage BF.7 spike (S) protein (SARS-CoV-2).
For experiment [3], the target named is SARS-CoV-2 spike (S) protein, Omicron sublineage BA.2.75.2 (SARS-CoV-2).
Experiment [4] deals with SARS-CoV-2 spike (S) protein, Omicron sublineage BA.4/5 (SARS-CoV-2).
The target in experiment [5] is SARS-CoV-2 spike (S) protein, Omicron sublineage BQ.1.1 (SARS-CoV-2).
The target in experiment [6] is SARS-CoV-2 spike (S) protein, Omicron sublineage XBB (SARS-CoV-2).
For experiment [7], the target named is SARS-CoV-2 Omicron sublineage CH.1.1 spike (S) protein (SARS-CoV-2).
Experiment [8] addresses SARS-CoV-2 B.1.429 spike (S) protein (SARS-CoV-2).
The target of experiment [9] is SARS-CoV-2 B.1.621 spike (S) protein (SARS-CoV-2).
The target of experiment [10] is SARS-CoV-2 B.1.427 spike (S) protein (SARS-CoV-2).
Experiment [11] concerns the target SARS-CoV-2 CH.1.1 spike (S) protein (SARS-CoV-2).
Experiment [12] concerns the target SARS-CoV-2 B.1.1.7 spike (S) protein (SARS-CoV-2).
Experiment [13] has as its target SARS-CoV-2 XBB spike (S) protein (SARS-CoV-2).
Experiment [14] addresses SARS-CoV-2 EG.5.1 spike (S) protein (SARS-CoV-2).
Experiment [15] concerns the target SARS-CoV-2 HK.3 spike (S) protein (SARS-CoV-2).
Experiment [16] has as its target SARS-CoV-2 JF.1 spike (S) protein (SARS-CoV-2).
For experiment [17], the target named is SARS-CoV-2 B.1.617.2 spike (S) protein (SARS-CoV-2).
The target of experiment [18] is SARS-CoV-2 JN.1 spike (S) protein (SARS-CoV-2).
Experiment [19] deals with SARS-CoV-2 XBB.1.5 spike (S) protein (SARS-CoV-2).
Experiment [20] deals with SARS-CoV-2 B.1.526 spike (S) protein (SARS-CoV-2).
In experiment [21] the target is SARS-CoV-2 P.1 spike (S) protein (SARS-CoV-2).
Experiment [22] addresses SARS-CoV-2 FL.1.5.1 spike (S) protein (SARS-CoV-2).
For experiment [23], the target named is SARS-CoV-2 B.1.525 spike (S) protein (SARS-CoV-2).
The target of experiment [24] is SARS-CoV-2 spike (S) protein, B.1.351 (SARS-CoV-2).
The target of experiment [25] is SARS-CoV-2 P.2 spike (S) protein (SARS-CoV-2).
Experiment [26] addresses SARS-CoV-2 BA.1 spike (S) protein (SARS-CoV-2).
Experiment [27] concerns the target SARS-CoV-2 XBB.1.16.6 spike (S) protein (SARS-CoV-2).
The target in experiment [28] is SARS-CoV-2 BA.2.86 spike (S) protein (SARS-CoV-2).
The target in experiment [29] is SARS-CoV-2 BA.4/5 spike (S) protein (SARS-CoV-2).
Experiment [30] deals with SARS-CoV-2 JD.1.1 spike (S) protein (SARS-CoV-2).
The target of experiment [31] is SARS-CoV-2 HV.1 spike (S) protein (SARS-CoV-2).
Experiment [32] addresses SARS-CoV-2 B.1.617.1 spike (S) protein (SARS-CoV-2).
Experiment [33] addresses SARS-CoV-2 B.1.351 spike (S) protein (SARS-CoV-2).
Experiment [34] has as its target SARS-CoV-2 XBB.2.3.2 spike (S) protein (SARS-CoV-2).
Experiment [35] addresses SARS-CoV-2 spike (S) protein, B.1.617.2 (SARS-CoV-2).
Experiment [36] addresses SARS-CoV-2 KP.2 spike (S) protein (SARS-CoV-2).
Experiment [37] has as its target SARS-CoV-2 LB.1 spike (S) protein (SARS-CoV-2).
The target of experiment [38] is SARS-CoV-2 KP.3 spike (S) protein (SARS-CoV-2).
The target of experiment [39] is SARS-CoV-2 KP.2.3 spike (S) protein (SARS-CoV-2).
Experiment [40] deals with SARS-CoV-2 KP.3.1.1 spike (S) protein (SARS-CoV-2).

As for LY1404 (antibody), the pseudotyped neutralization potency IC50 in experiment [1] was greater than 67 nM; in experiment [2], 0.02 nM; in experiment [3], 0.04 nM; in experiment [4], 0.01 nM; in experiment [5] it was greater than 67 nM; in experiment [6], greater than 67 nM. This substance also yielded a pseudotyped neutralization potency IC50 in experiment [7] greater than 67 nM. The pseudotyped neutralization potency IC80 in experiment [1] is greater than 67 nM; in experiment [2], 0.18 nM; in [3], 0.14 nM; in [4], 0.02 nM; in experiment [5] it was greater than 67 nM; in experiment [6], greater than 67 nM. Further, the pseudotyped neutralization potency IC80 in experiment [7] was greater than 67 nM.

Turning to AZD3152 (antibody), the pseudovirus neutralization IC50 in experiment [8] stood at 0.082 µg/mL; in experiment [9], 0.04 µg/mL; in [10] it was 0.09 µg/mL; in experiment [11] it was 0.045 µg/mL; in [12], 0.093 µg/mL; in experiment [13], 0.011 µg/mL. For the same substance, the pseudovirus neutralization IC50 in [14] is greater than 10 µg/mL; in experiment [15], greater than 10 µg/mL; in experiment [16], greater than 10 µg/mL; in experiment [17], 0.09 µg/mL; in experiment [18] it was 0.766 µg/mL; in experiment [19], 0.016 µg/mL. Also, the pseudovirus neutralization IC50 in experiment [20] was 0.049 µg/mL; in [21], 0.047 µg/mL; in experiment [22], greater than 10 µg/mL; in experiment [23] it was 0.1 µg/mL; in experiment [25], 0.02 µg/mL; in experiment [26] it was 0.012 µg/mL. In addition, the pseudovirus neutralization IC50 in experiment [27] was greater than 10 µg/mL; in experiment [28] it was 0.053 µg/mL; in experiment [29] it was 0.03 µg/mL; in experiment [30] it was greater than 10 µg/mL; in experiment [31] it was greater than 10 µg/mL; in experiment [32], 0.041 µg/mL. Also, the pseudovirus neutralization IC50 was 0.024 µg/mL in experiment [33] and 0.025 µg/mL in [34]. The pseudotyped neutralization potency IC50 in experiment [14] is greater than 66.7 nM; in experiment [22], greater than 66.7 nM; in experiment [27], greater than 66.7 nM; in experiment [28] it was 1.8 nM; in [34], 0.0806 nM. The pseudotyped neutralization potency IC80 in experiment [14] was greater than 66.7 nM; in experiment [22] it was greater than 66.7 nM; in experiment [27], greater than 66.7 nM; in [28], 5.4 nM; in experiment [34], 0.488 nM. Also, the IC50, pseudotyped neutralization potency in experiment [24] was 0.023 nM; in experiment [35] it was 0.281 nM. Also, the IC80, pseudotyped neutralization potency came to 0.041 nM in [24] and 0.518 nM in experiment [35].

ADG20 (antibody): the pseudovirus neutralization IC50 in experiment [36], in experiment [37], in [38], in experiment [39] and in [40] was greater than 67 nM in each case. For the same substance, the pseudovirus neutralization IC80 in experiment [36], in [37], in experiment [38], in experiment [39] and in experiment [40] was greater than 67 nM throughout.
